Results: the DeepSol protein solubility set

Test: soluble on expression in E. coli; label from the status in PepcDB or PDB records

Sequence	soluble on expression in E. coli
MAHHHHHHMSSSVVIVGDSICGGDGDQKLSTSHDEVYLRGFNTFAGNNPSDRALLHEGAGEVVAAISGHIEVTERVISVKGLLPRYQPEIGDVVVGRIVEVSGNKWHVDVNSTQTAIMLLSSVTEPGGILRRRGRGDELGMRQIFDQDDLVAAEVQRISPDGVMSLHTRAADKYGRLSGLGILVSVRPSLVKRAKHQFVELADYSTQLIIGMNGNIWICSVQPSTSDAEETEHATDARQNVARVANCIKALGAAQVQIHPASIEASVAASLDAGLSVFDVSLPKNRDALVARVADMVGMQHRRPTGGGACARTLV	not soluble
MAHHHHHHMRRALHAAALPSRAPLTPQRYKSYVLKFLRGQLPHDLKDCAGALGCLYGTLPDVDEYRQFVVPLQVLQQYHQLGYAKLPRPVLDPPQVDILADEVNQLANNVEHHPKSEHLYATSLADLTGGPLFYCQGQWRCAWGMHDLVYLPTLTVAASQALGNRLVRLWYDEAFMKEARTGPCVPWQQNYVRWQHTTPVNHVSIMIALDTLNKDRGAPCLIPGSHRWREGQLLPPVPYDPTQSETQQLNTIWDITNDDEQEMLADTPPATVDLRRGEALLIHPKTLFATHGNRSLDAARCCCVHYMGEATCAVQDGPLLPHTTRFRAGTRVSGPFFPVVFDPAMTEDLLMLDNKEGGAAA	not soluble
MAHHHHHHMALLEWARQDATMKSSLELYCGPASKDLMIMDIPANVAVDAYLWEGLLVAESMLEADGTLLVVSPHAFSVRVRRFLQWRFLRAQCAVSEAGAVHYAVCSTVAAGFGDAAVRRDDFPGQLATGKRRPCKWNPYRRPEKRKFVASLRPWFTNAPFVKDALRCSLERERDAQERLRDADDAFFAVAHEMVEKGVHYSHPND	not soluble
MAQENSTVKPTQAELTLLNVLWKMGPATVRQVHDVVSTTQKTGYTTVLKILQIMHEKSLVIRDESNRAHVYAAANSQTQTQSSLIKDLISKAFGGSTSKLVMRAIDDSTSEQEINDIRQLLNSLEK	not soluble
MELIRNLDDANMGEVYWRLYRRYISLFIENEADDAYAWRCARALDELDDAVIERLCAASLRYRAARLERLGESAEEVAPARGVLERIEPGELIVPDPEQGDEAVIHLSLNCEWDREHGMEWIVRGGEVLYVGPFHGEDPWRDFTVKEPWNYA	not soluble
MGSDKIHHHHHHSDDINQKVAEQLAQKAQSSSLGYDIVESLTVEVGPRLAGSEQDKVAVDWAIAKLQSLGFDRVYKEPVTVPVWRRGIAKASILSPFPQPLVVTALGGSIATPAQGLSATIVRFDTLQDLQNAEAGSLNDKIAFIDAKTERHRDGKGYGQTASGRSRGAVAAAEKGAVGIIIRSIGTDHDRMAHTGMMRYEEGVTAIPAAAISNPDADLINAMLKRDKEVVISLELGSERRGETTSYNVIAEVKGSTKADEIVLIGAHLDSWDEGTGAIDDGAGVAIVTAAAKHILDLPQKPERTIRVVLYAAEELGLLGGKTYAKEHEAELEKHYIAAESDFGAGPIYQIDWRVADTAHSPVINAMKVAEPLGVAAGNNKASGGPDVSMLPALGVPVASLRQDGSDYFDYHHTPNDTLDKINPEALAQNVAVYAQFAWVMANSKVELRPLPPKE	not soluble
MITDEHIELFLAQAHRYGDAKLMLCSSGNLSWRIGEEALISGTGSWVPTLAKEKVSICNIASGTPTNGVKPSMESTFHLGVLRERPDVNVVLHFQSEYATAISCMKNKPTNFNVTAEIPCHVGSEIPVIPYYRPGSPELAKAVVEAMLKHNSVLLTNHGQVVCGKDFDQVYERATFFEMACRIIVQSGGDYSVLTPEEIEDLEIYVLGKKTK	soluble
MGSDKIHHHHHHMNLQGLLLFDIDGVIRDVAASYRRAIQETVHHYSGWRPSVAEIDALKTEGIWNNDWDASLELLRRDQKSRNQALELPSREQLIEVFSRFYFGGDPNGDPSNWQGFIRNEPLLVNHRFFEELSSLGFAWGFVSGAEPPSARFVLEQRLGLKHPTLIAMGEAPDKPDPTGLLQLASQLAGRRLGQGVPTVAYLGDTVADVRTVINARQQQPEQQWMSLAVAPPHLHGIEQQEARNAYEDRLKQAGADHILSCTTDAIETLKNW	not soluble
MENAGKATSLQSSRDLFHRLMSENSSGGWEKSWEAGATPWDLGKPTPVIAHLVETGSLPNGRALVPGCGTGYDVVAMASPDRHVVGLDISKTAVERSTKKFSTLPNAKYFSFLSEDFFTWEPAEKFDLIFDYTFFCAFEPGVRPLWAQRMEKLLKPGGELITLMFPIDERSGGPPYEVSVSEYEKVLIPLGFEAISIVDNELAVGPRKGMEKLGRWKKSSTFHSTL	soluble
MGSDKIHHHHHHMTKTYHFIGIKGSGMSALALMLHQMGHKVQGSDVEKYYFTQRGLEQAGIQILPFDEKNITADVELIAGNAFRPDNNVEIAYVDAQGYTYKRYHEFLGEFMKGFTSLGVAGAHGKTSTTGLLAHVMRNITDTSFLIGDGTGRGSANAQYFVFESDEYERHFAPYHPEYSIITNIDFDHPDYFTSLEDVFNAFNDYAKQVKKALLVFGEDEQLRRITANAPIYYYGFEENNDFVAYDLKPSTSGSQFKVRHGEEELGEFQIPTFGKHNVMNATAVIANLYIAGFDLQLVAEHLKTFGGVKRRFTEKIVNDTVIIDDFAHHPTEIIATIDAARQKYPSKELVAIFQPHTFTRTIALLDEFADALNGADAVYLAQIYGSARETDNGQVKVEDLAAKINKKGGLVTVENTSPLLDHDNAVYVFMGAGDIQSYEYSFERLLSNLTNNVQ	not soluble
MEELIKKAKEYDIDINDLIIDAISRKDPKEAINLRIELAKKYITETEDYLKKGDAVQASEKAYKTAEEIVKALAEKFNIPEYQQALKEGRWYTYWLASAVNRLAKDLGDWVLNGWNSAYILHVWGFHEAKLSTADISEHLRKVKEMLDNVINIIGKLEHHHHHH	soluble
MASAAKGKILAVIGDEDTVVGFLLGGVGELNKARKPNYLIVDKQTTVQEIEEAFNGFCARDDIAIILINQHIAEMIRYAVDNHTQSIPAVLEIPSKEAPYDPSKDSILNRARGLFNPEDFR	soluble
MNTMNSVLKYKELALYGGSFDPLHKAHLAIIEQTLELLPSAKLIVLPAYQNPFKKPCFLDAQTRFKELERALKGIDRVLLSDFEIKQERAVPTIESVLHFQKLYHPQTLYLVIGADCLRHLSSWTNAKELLKRVELVVFERIGYEEIQFKGHYHPLKGIDAPISSSAIRASLGV	not soluble
MTDDNDNKNTELPMSASEVTAGTKIVRRAANQKPSRVVADICVVGSGAAGMSAAIEGARAGRKVVLVDSLPALGGQAVNSIIGTFCGLFSNGSDGYQFTHGIADDLLGDLGAQENALFYRRGPHTTVVYYDEVALGRWVEKAMLAAGVTVIVGAVMRNVRVAGRRVTGIDLSTRYGDVEVEANGFVDASGDAALVWQAGFACREPDDGPIYGTQMLIVENIDESKVPSREELPARMREKAGDYGLLRREGLSFVIPGRGVAAMNMTHVETPLEPLEASRKGIEGKDQADRAFAFLRNEFPACFGKARIRAYGLPGIRQTRWIVGRQQLSVDDVRAGTKFEDAIGRTAWPIELHDHGSGHHWHIFDKDHVHYVPFGSLTPQEAENIVAAGRCIDADKAALSSVRVMGPCMAMGAAAAHALDLAGSGSVHQIDIDALKWRVRDNLERTDLEHHHHHH	not soluble
MDLNVKQSGIHSVALHTTYFQNRSGKVYKRAEERYLRNDLSCGLAQCGTCKDFGTNPLLKIENPVRNAKVGRHALIVDSTSLIRFYDLFDSSLLRDLIVTQTVWEGVKAKAVPAYKKMNSLCYEDAKDRFHVFMNEFHCETFSESSKFEDLSRGEELLLSTALYLKTHWQKHNVAPVVLVFDEDSKKRMENHYQHVMYLKEYIQNLEDPGKQALLDQMAAYESSGNGNEKQIFDEYLSHDRIMEGIASGTIKRGNFSVSRENYREATVIIDDQLTSWFITGNNCNRAVNGDTVAVQLLPEDQWTAPEKKIRLRDVEEYVKTADDMGNEDEENDDENDEPKAKKSKKMTVSTAKVVGIIKRNWREYCGMLLPSTVKGARRHLFCPAERLIPRIRIETEQAETLSQQRIVVAIDHWPRDSKYPLGHYVRSIGEMGSRETENEVLLLEHDIPHAPFSESVLDCLPREEWEPDLTENRGPLPRVDLRDLTICSVDPLGCTDIDDALHCKQIGEDLFEVGVHIADVTHFVRPGTAIDDEAALRGTTVYLCDRRIDMLPCLLSSNLCSLRGEEERYAFSCIWTMTSSADIQSVKYHKSLIKSKAALTYEKAQEIIDDPKEQNDVALGLRGLMKLSKVLNARRTGNGALTLASSEVRFDMDWESRTPKKVMEKQHLDTHSMVEEFMLLANISVAEKILEEYPDCALLRRHPVPLKESYKPLVEAARHRGFEIIVESGKGLADSLNRCVDKKNPMLNRLLRMLTTRCMTQAVYFSAGKDGFSDIKLEEKKFFVLKTLNLPYRSCLCDDTETSIHLSRGLNDYFLFKKEKLHMSVGVLFKLFDCLGTVPVPQYQHFGLACAIYTHFTSPIRRYADVIVHRLLAAAIGADDIQSGLLNQARCTKICTNINYRHKQAQYAGRASVQLNVVRYFKGKVETCEGFVMGVRNNGIQVFVPKYGLESIIVLQTSAASGTTIDVEEMSVKVNGDVVIKELEPVTVRISVNEKNQQRPRVELQLIKPAIPGLSVDFDLSSSEGLGL	not soluble
KLDKIDNKNRRIRKKLFLGEFAILGFEISCETDINDFDRYDAFVDDFIDYIDTLGLCFGGGGLELFEGFLCSTERYGSATEEQKAQVVAWLEARPEVKSAKAGDLLDANY	not soluble
MFEITRPPGVRAHVGVIGGSGLYDPGIVENPVEVKVSTPYGNPSDFIVVGDVAGVKVAFLPRHGRGHRIPPHAINYRANIWALKALGVKWVISVSAVGSLREDYRPGDFVVPDQFIDMTKNRRHYTFYDGPVTVHVSMADPFCEDLRQRLIDSGRRLGYTVHERGTYVCIEGPRFSTRAESRVWKDVFKADIIGMTLVPEINLACEAQLCYATLAMVTDYDVWADRPVTAEEVERVMISNVERARRMLYDVIPKLAGEPELERCSCCRALDTAAI	soluble
MLSERMLKALNDQLNRELYSAYLYFAMAAYFEDLGLEGFANWMKAQAEEEIGHALRFYNYIYDRNGRVELDEIPKPPKEWESPLKAFEAAYEHEKFISKSIYELAALAEEEKDYSTRAFLEWFINEQVEEEASVKKILDKLKFAKDSPQILFMLDKELSARAPKLPGLLMQGGE	soluble
MAHHHHHHMVNTLLNYSESIQLGDELSNLLEFTREMNAYLRGTQVAESDVLREAHNSFAPTEFFVLHDETPDASDVYHFVSFVYKNGAVWELDGLQKGPILAADATDGNYKEKLVEVVQKRVIDKSAADNTGTGQGISFSLMAVVDDRLLQLEKEIEEAKAREEPTAYLAEQLEELRLQREKGRAENQRRRHNYVPMIVELLKALAEKGKLEGIVEEALAKKAASASSDRS	soluble
MPITRTGLPHAVASTSQTQETSQASASQGVLDPGTVPPRRAETFDGLSALPNDLRREIAQRCGPRSLVRLGSVSRQMAEDTRDVRAFLTARPRYDPSLEFGDVHSAESMRVALDEVTHFPYPDDEDRSEQILRGYGRLAARIPSLPQAQRFEAFTAVLNHATRHSGNMAFRVVARLTDDLGCLPEDLRALAFHAILPSLIATRRQALQAAAGAAHVGHIGAVAEADAGGVQGDGEPGPQGAVAPAQGGAAGGIGGALPFNLLASAIRHLPEEAVNLAITEAAALQTGPRLLAEVTLRLHLVGLEPIHRFQQAYAQLAEHLARSGDGAEALTHLVALLNRLPNPGVRQAAFRELTRAVHALDSTESGAAVLRRLAGALPHQPAAVRYLCSLDVLAAAASLFPSEQIPVIAAVRAQAAAIPNQAAELIARCDDAIATASMMLATVSRRYMDM	not soluble
PQPGAARGLGRVAYADARQHRDILQSLVRALNGSRRRIWLATPYFLPTWKVRRALRKAAQRGVEVRLLLAGRLTDHAPVRYAGQRYYPRLLRAGVRIHEYQPRFLHLKMVMVDDWVSVGSCNFDHWNLRFNLDANLEALDPDFTNEAAASLLADFADSREVTLAMWRARPLWMR	not soluble
